Experimental data as given in patent US20220119534A1 (DRAGONFLY THERAPEUTICS, published 2022).
“And” between values parts separate entries of the source, which are not always exact repeats. Equal entries are not always repeated.

Experiments:
mFc-hNKG2D = target: T1, mFc-hNKG2D (human, UniProt P26718 73-216); assay: SPR Biacore 8K 37 C; mFc-hNKG2D captured on anti-mFc chip, TriNKET as analyte; 1:1 kinetic fit; after 4 wks 40 C in CST pH 7.0, n=3
T1 construct: extracellular domain; Made in house (Dragonfly Tx); the order of tag and ECD follows the name mFc-hNKG2D; also called mFc-tagged human NKG2D; not shown: mouse Fc tag
T1 sequence (looked up): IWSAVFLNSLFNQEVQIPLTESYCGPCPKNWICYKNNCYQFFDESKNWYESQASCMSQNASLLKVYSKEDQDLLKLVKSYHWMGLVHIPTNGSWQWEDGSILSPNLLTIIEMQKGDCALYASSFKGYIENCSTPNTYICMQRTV

Human CLEC12A-His = target: T2, Human CLEC12A-His (human, UniProt Q5QGZ9 65-265); assay: SPR Biacore 8K 37 C; TriNKET captured on anti-hFc chip, hCLEC12A-His as analyte; classical 1:1 fit
T2 construct: Recombinant soluble protein made in house (Dragonfly Tx); The hCLEC12A spot of the HuProt array is written under this molecule as well; also called hCLEC12A-His; hCLEC12A; not shown: His tag
T2 sequence: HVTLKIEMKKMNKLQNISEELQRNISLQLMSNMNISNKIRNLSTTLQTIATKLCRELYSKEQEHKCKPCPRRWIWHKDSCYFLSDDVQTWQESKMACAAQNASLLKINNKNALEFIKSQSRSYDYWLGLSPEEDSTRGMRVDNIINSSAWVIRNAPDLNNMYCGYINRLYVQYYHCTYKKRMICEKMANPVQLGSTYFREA

mFc-cNKG2D = target: T3, mFc-cNKG2D (cynomolgus monkey, UniProt P61252 73-216); assay: SPR Biacore 37 C; mFc-tagged cyno NKG2D dimer, TriNKET as analyte; kinetics fit
T3 construct: extracellular domain; Made in house (Dragonfly Tx); also called recombinant cyno NKG2D extracellular domain (ECD); mFc-tagged cyno NKG2D dimer; not shown: mouse Fc tag
T3 sequence (looked up): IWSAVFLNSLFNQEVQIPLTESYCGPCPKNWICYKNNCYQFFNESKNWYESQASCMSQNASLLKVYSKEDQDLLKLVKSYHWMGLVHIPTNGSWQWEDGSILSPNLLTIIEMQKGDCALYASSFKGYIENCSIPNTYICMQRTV

B1: F3'-1602 TriNKET (bispecific antibody, human IgG1, kappa)
chain: QLQLQESGPGLVKPSETLSLTCTVSGFSLTNYGLHWIRQPPGKCLEWIGVIWSGGKTDYNPSLKSRVTISKDTSKNQFSLKLSSVQAADTAVYYCAKYDYDDSLDYWGQGTLVTVSSGGGGSGGGGSGGGGSGGGGSDIQMTQSPSSLSASVGDRVTITCHASQNINFWLSWYQQKPGKAPKLLIYEASNLHTGVPSRFSGSGSGTRFTLTISSLQPEDIATYYCQQSHSYPLTFGCGTKLEIKGSDKTHTCPPCPAPELLGGPSVFLFPPKPKDTLMISRTPEVTCVVVDVSHEDPEVKFNWYVDGVEVHNAKTKPREEQYNSTYRVVSVLTVLHQDWLNGKEYKCKVSNKALPAPIEKTISKAKGQPREPRVYTLPPCRDELTKNQVSLTCLVKGFYPSDIAVEWESNGQPENNYKTTPPVLVSDGSFTLYSKLTVDKSRWQQGNVFSCSVMHEALHNHYTQKSLSLSPG
heavy: EVQLVESGGGLVKPGGSLRLSCAASGFTFSSYSMNWVRQAPGKGLEWVSSISSSSSYIYYADSVKGRFTISRDNAKNSLYLQMNSLRAEDTAVYYCARGAPIGAAAGWFDPWGQGTLVTVSSASTKGPSVFPLAPSSKSTSGGTAALGCLVKDYFPEPVTVSWNSGALTSGVHTFPAVLQSSGLYSLSSVVTVPSSSLGTQTYICNVNHKPSNTKVDKKVEPKSCDKTHTCPPCPAPELLGGPSVFLFPPKPKDTLMISRTPEVTCVVVDVSHEDPEVKFNWYVDGVEVHNAKTKPREEQYNSTYRVVSVLTVLHQDWLNGKEYKCKVSNKALPAPIEKTISKAKGQPREPQVCTLPPSRDELTENQVSLTCLVKGFYPSDIAVEWESNGQPENNYKTTPPVLDSDGSFFLYSWLTVDKSRWQQGNVFSCSVMHEALHNHYTQKSLSLSPG
light: DIQMTQSPSSVSASVGDRVTITCRASQGISSWLAWYQQKPGKAPKLLIYAASSLQSGVPSRFSGSGSGTDFTLTISSLQPEDFATYYCQQGVSFPRTFGGGTKVEIKRTVAAPSVFIFPPSDEQLKSGTASVVCLLNNFYPREAKVQWKVDNALQSGNSQESVTEQDSKDSTYSLSSTLTLSKADYEKHKVYACEVTHQGLSSPVTKSFNRGEC
notes: Trispecific F3' format: CLEC12A scFv-Fc paired with NKG2D Fab-Fc; Stressed and control samples of the stability studies are the same molecule; also called AB0237
Q: B1 was tested. Which Kd (mFc-hNKG2D) did it give?
A: Its Kd is 708 nM.

Q: And the koff (mFc-hNKG2D)?
A: Its koff is 0.14 s⁻¹.

Q: And the kon (mFc-hNKG2D)?
A: Its kon is 198000 M⁻¹ s⁻¹.

Q: What about the Kd (Human CLEC12A-His) of the same binder?
A: Its Kd is 0.8 nM.

Q: What about the koff (Human CLEC12A-His) of the same binder?
A: Its koff is 0.000895 s⁻¹.

Q: And the kon (Human CLEC12A-His)?
A: The kon was 1.11e+06 M⁻¹ s⁻¹.

Q: What about the Kd (mFc-cNKG2D) of the same binder?
A: Its Kd is 831 nM and 825 nM and 931 nM and 769 nM.
